Key:
[1] = biological target: T1, endogenous neurofascin on cultured DRG neurons (rat, UniProt P97685 25-1240); experiment: co-clustering on DRG neurons after aggregation of Necl4-Fc
T1 construct: whole, on cells
T1 sequence (looked up): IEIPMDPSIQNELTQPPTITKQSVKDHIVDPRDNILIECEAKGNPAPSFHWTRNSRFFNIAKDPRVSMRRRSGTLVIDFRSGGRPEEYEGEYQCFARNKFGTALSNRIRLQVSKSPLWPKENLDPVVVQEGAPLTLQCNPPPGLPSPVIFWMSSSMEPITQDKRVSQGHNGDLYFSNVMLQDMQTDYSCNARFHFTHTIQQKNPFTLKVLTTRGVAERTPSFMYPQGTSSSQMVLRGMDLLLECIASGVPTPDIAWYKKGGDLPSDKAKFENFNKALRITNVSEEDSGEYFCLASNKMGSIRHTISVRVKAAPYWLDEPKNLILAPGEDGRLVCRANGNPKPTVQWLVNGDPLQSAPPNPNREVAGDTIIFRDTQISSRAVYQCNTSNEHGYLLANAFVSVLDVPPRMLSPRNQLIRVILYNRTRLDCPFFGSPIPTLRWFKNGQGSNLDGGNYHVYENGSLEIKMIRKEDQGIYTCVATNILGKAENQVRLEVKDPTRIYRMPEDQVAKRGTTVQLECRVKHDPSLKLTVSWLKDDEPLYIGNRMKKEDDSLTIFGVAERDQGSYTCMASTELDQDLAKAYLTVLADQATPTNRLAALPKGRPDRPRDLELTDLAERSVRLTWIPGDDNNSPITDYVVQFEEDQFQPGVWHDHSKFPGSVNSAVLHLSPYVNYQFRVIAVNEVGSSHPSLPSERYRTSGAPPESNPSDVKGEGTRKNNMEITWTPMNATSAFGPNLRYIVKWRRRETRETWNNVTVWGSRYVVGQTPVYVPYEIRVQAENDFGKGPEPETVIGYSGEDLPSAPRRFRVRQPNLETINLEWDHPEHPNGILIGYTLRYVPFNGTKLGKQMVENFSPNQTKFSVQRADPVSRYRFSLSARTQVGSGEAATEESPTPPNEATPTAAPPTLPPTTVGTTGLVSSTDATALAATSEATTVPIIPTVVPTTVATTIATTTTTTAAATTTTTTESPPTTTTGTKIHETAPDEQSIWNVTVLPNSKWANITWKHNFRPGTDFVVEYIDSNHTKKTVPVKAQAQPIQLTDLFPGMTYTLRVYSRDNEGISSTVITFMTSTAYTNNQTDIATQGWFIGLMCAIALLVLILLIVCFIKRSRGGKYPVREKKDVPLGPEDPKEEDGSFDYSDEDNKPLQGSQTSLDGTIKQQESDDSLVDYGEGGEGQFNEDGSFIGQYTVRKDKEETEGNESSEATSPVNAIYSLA
Description: (§1) Binding experiments were done by incubating the cells with medium containing different the Fc-fusions proteins pre-incubated with anti human Fc-Cy3 as described previously (Eshed et al., 2005). For clustering experiments, purified DRG-neurons or isolated Schwann cells were incubated with medium containing the respective Fc-fusion protein as described above, washed once and grown for additional 24 (DRG) or 4 hours (Schwann) before fixing. Fc-perturbation experiments were preformed by adding […] purified proteins to the medium of dissociated DRG cultures 2 days before the induction of myelination. Fresh medium containing the Fc-fusion proteins was replaced every second day and the cultures were fixed and stained after 11-12 days of myelination.

[2] = biological target: T2, endogenous gliomedin on cultured rat Schwann cells (rat, UniProt Q80WL1 1-549); experiment: co-clustering on rat Schwann cells after aggregation of Necl1-Fc with a secondary antibody to human Fc
T2 construct: whole, on cells; also called Gldn
T2 sequence (looked up): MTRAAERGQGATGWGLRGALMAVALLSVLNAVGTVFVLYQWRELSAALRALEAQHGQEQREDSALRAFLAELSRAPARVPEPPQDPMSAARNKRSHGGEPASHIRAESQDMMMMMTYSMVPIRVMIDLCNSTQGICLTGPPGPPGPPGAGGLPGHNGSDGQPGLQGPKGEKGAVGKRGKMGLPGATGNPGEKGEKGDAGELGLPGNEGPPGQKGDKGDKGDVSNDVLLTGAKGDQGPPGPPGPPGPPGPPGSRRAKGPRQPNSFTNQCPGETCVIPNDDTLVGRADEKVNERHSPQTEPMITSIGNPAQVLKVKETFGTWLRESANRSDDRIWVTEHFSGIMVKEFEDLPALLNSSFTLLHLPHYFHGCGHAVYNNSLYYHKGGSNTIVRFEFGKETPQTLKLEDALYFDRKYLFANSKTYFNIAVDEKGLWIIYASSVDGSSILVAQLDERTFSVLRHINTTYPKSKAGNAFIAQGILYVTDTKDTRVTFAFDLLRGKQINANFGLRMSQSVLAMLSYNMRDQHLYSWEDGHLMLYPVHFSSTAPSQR
Description: as §1
To further determine whether Necl4 is the Schwann cell receptor for axonal Necls, we examined the ability of Necl1-Fc and Necl3-Fc to bind Schwann cells that were transfected with Necl4-specific siRNAs to block its expression (FIG. 10B). In contrast to Schwann cells transfected with a control siRNA, down-regulation of Necl4 in Schwann cells by siRNA abolished the binding of Necl1-Fc and Necl3-Fc. […] In a reciprocal set of experiments, reduction of Necl1 expression in DRG neurons by transfection of siRNA abolished the binding of Necl4-Fc (FIG. 11).

B1: Necl4-Fc (extracellular domain of Necl4 fused to the constant region of human IgG1) (Fc fusion)
chain: QEVQTENVTVAEGGVAEITCRLHQYDGSIVVIQNPARQTLFFNGTRALKDERFQLEEFSPRRVRIRLSDARLEDEGGYFCQLYTEDTHHQIATLTVLVAPENPVVEVREQAVEGGEVELSCLVPRSRPAAVLRWYRDRKELKGVSSGQENGKVWSVASTVRFRVDRKDDGGIVICEAQNQALPSGHSKQTQYVLDVQYSPTARIHASQAVVREGDTLVLTCAVTGNPRPNQIRWNRGNESLPERAEAVGETLTLPGLVSADNGTYTCEAANKHGHARALYVLVVYDPGAVVEAQTSVPY
notes: also called soluble Necl-4; soluble Necl4; not shown: constant region (Fc) of human IgG1
B1: no binding [1].

B2: Necl1-Fc (extracellular domain of Necl1 fused to the constant region of human IgG1) (Fc fusion)
chain: NLSQDGYWQEQDLELGTPAPLEEALSSTVWSNPDLLASQDSQPWTSDETVVAGGTVVLKCQVKDHEDSSLQWSNPAQQTLYFGEKRALRDNRIQLVSSTPHELSISISNVALADEGEYTCSIFTMPVRTAKSLVTVLGIPQKPIITGYKSSLREKETATLNCQSSGSKPAAQLAWRKGDQELHGDQTRIQEDPNGKTFTVSSSVSFQVTRDDDGANVVCSVNHESLKGADRSTSQRIEVLYTPTAMIRPEPAHPREGQKLLLHCEGRGNPVPQQYVWVKEGSEPPLKMTQESALIFPFLNKSDSGTYGCTATSNMGSYTAYFTLNVNDPSPVPSSSST
notes: Produced in HEK 293T cells; also called soluble Necl1; Nel1-Fc; not shown: constant region (Fc) of human IgG1
B2: no binding [2].
